From the DeepSol protein solubility set

test: soluble on expression in E. coli; label from the status in PepcDB or PDB records

Sequence	soluble on expression in E. coli
MGSDKIHHHHHHMKNLLSTREVAQFLGVNEKMVYTLISDKGLPATKVTGKWLFPAHLVEQWVENSTINFPRRHESAPPAEGVLLVAGSNDILFERTLRLFMDAQPDYIAAFANMGSMGGIKALRRGVCHMATSHLKQEDGAEYNFAHAERELEERPAVVNFCLREQGLLVPRGNPAGISCVADVAGGGLTVANRPLGTGTRLLFDSELAAAGINPARLKGYENEFSRHMDVGLEVLSGRADTAPAIRAVAGLLGLDFIPLGWERFDLLIPRDTFFERHIQLFMGLFTTPEFAALAGQLEGYDTSRAGRVVFPGETLRETRR	not soluble
GPLGSMKLRVENPKKAQKHFVQNLNNVVFTNKELEDIYNLSNKEETKEVLKLFKLKVNQFYRHAFGIVNDYNGLLEYKEIFNMMFLKLSVVFDTQRKEANNVEQIKRNIAILDEIMAKADNDLSYFISQNKNFQELWDKAVKLTKEMKIKLKGQKLDLRDGEVAINKVRELFGSDKNVKELWWFRSLLVKGVYLIKRYYEGDIELATTSDFAKAVFE	soluble
MAHHHHHHMRARRWWHGPYSLLYTLNLLLSLSLSPSHAGGGKEVSTTHTYTHPSTMQRGANVRPIKLAEKVFSTKTVCPTAASQLYVAHGLLGNSGNWATASRHLVEHSALKDKLRRAIAVDMRNHGSSTHSSDHTNAALASDLEALVLREQQELDRAFCDPSSCTTRNAILIGHSMGGLTVMGALLRRANEHHLLTSLVDHCDDVGSTSSYGAWPAEHRRQCIAGMRAVNEEFGFASSQPIAEVLFNNCRASSSLSTGSGNASRIPLLGRVAGAIIVDVTPTMRLGEQRSCADNVKETLERMTQVRLDEIHSYKDATAELIRVGMADEEMRAFVATNIALDPKDKSKPAQWKCNLPVLAGDYGSFQPSITSWFTSSATTMGPASSAAAPRLCTLPVMFVFGGESPYNEPDHRQHISRFFSNATQVEVAGAGHFVHYEKPKEFTDAVAPFIASLISQP	not soluble
MTYEAGCGLIKALEDPDNRVRQRAVKTLGKRGNPDVLEDLMEALKDSRQPVQEAASEALRKIIAASDSVPVLVKALDATDRNVRKAAIEALWKAGTPEAIPPLLRELDDADWYLRSRAADALADIASPEAALGLIKVMDIHDSPVKKIIVNALGKIGTVEAVEGLVKALEDLEHHHHHH	not soluble
MQELYLLGVVPSRRFEAVVNSLSKTLDGPKTILEFWVVYRPKDVPPNLPRQPDSWLRLCSNIESHDETDTEWSKNTQWSMYLEGNSEPKREDKCGIRPVNRAKLTNGSVTEFVEKMGYEFSHEYIIQGLEYFFFDTTVRIYQTLIPSQQRSIKPPFHPMNEEQPWILHVYTHVADASNQVAMAKAEANLTKVKTLLSAFCDLKNVRL	soluble
MAHHHHHHMAVLVKNYEASLVDMAVQDFIKLGIDGVYTTMKTVVSFEYIFNFTSHMRNLHKYSTNFLELQINDHNKECVTNILQNLTMENIRKSSSASIKAGFEFLNALNDDIKKKHFSENVNYMVMVTITWDIHGNSGVSPNEPFSILCYIKCLPKHGSHVQIDIMCGERKTPNIKYSNVFDVRNKMLKLKSEDSHEVVLYNEKEEITEGLTCNFFCFFNDTLYTANDELVLKGTMREQIIHICEEEGVKLKKEAISIRDVGRFEFCFICSTTRNIIPVKKIILCSENKAEFEKDVHHPVLVKLQQKLREAVEKKKEKYEAYVSAALGV	not soluble
MGSDKIHHHHHHMTPDQYCQEKAVQSGSSFYYSFLYLPPERRRAITALYAFCREVDDVVDECTEASVARVKLAWWRQEVAAIFDAGGNKPSHPVAQALAGVASTFNLTADRLNEIIDGMEMDLDYNRYADFDTLRHYCYHVASVVGLCSAEIFGYRNPKTLEYAQDLGLAFQLTNIIRDVGEDARRDRIYLPQDELARFGVSNEDILQSRETDNFRRLIEFQIDRAESYYANAFAALPEEDRKSQRSGIIMAAIYQALLKEIKADGCHVMRQRISLTPLRKLWIAWKTWMKG	not soluble
MSAGKIDVHGFEKETLFFKNIASGSKGNCTLIWDSTDLIVIDLGITMKKFRDSIKSLDLAGRSISLFISHEHSDHIGGVPTTSKYVDMDVYMRPALSGSFRRKTYEMDGSLVVGNFEIRAFEIPHDAADPVGFSVLWHNRKISVVSDLGKVTDRVIESIRNSDILAFESNHDVEMLRTGSYPEALKRRILSDHGHLSNEQSAEAISRVATDDMRIILTHLSQENNRPEIALNEVKSYLENRNVRYRSIETADQYTGSSLYTLER	not soluble
GPGSMNPSKVVQGTPNSVEWDPRNPPDTPFFTETTAVERSRIPTEYIRRMEEATRLYAMHREGRHALHTACQIASWTVATQCCWLCVGVWLTVRGYRHANPAHSFVSGMTSNKVFCRVFTPIPVLGLTMMGVTAAQLPRDVKVLITAREGRMEEENCMKSAFDQCMAALAEGRLAMGKEGILTA	not soluble
MTLMKSNLIAAAEIDRLDTWAKYTAPMCGSCMSSCCTLPVEVKIKDLIRIGIVDEFERGEPAKNIAKRLQKEGIVERYNQKSEIFTLQRMSNNDCLYLDRKSRLCTIYDKRPDTCRNHPKIGPRPGYCAYKPKPQVRPTNTSSRTLERFLEHHHHHH	not soluble
MGHHHHHHSHMEKCSVGGLELTEQTPALLGNMAMATSLMDIGDSFGHPACPLVSRSRNSPVEDDDDDDDVVFIESIQPPSISAPAIADQRNFIFASSKNEKPQGNYSVIPPSSRDLASQKGNISETIVIDDEEDIETNGGAEKKSSCFIEWGLPGTKNKTNDLDFSTSSLSRSKTKTGVRPFNPGRMNVAGDLFQNGEFATHHSPEMHLQRRLMSFFQ	soluble
MRGSHHHHHHTDPALRANSLFASTARGLEELLKTELENLGAVECQVVQGGVHFKGDTRLVYQSLMWSRLASRIMLPLGECKVYSDLDLYLGVQAINWTEMFNPGATFAVHFSGLNDTIRNSQYGAMKVKDAIVDAFTRKNLPRPNVDRDAPDIRVNVWLHKETASIALDLSGDGLHLRGYRDRAGIAPIKETLAAAIVMRSGWQPGTPLLDPMCGSGTLLIEAAMLATDRAPGLHRGRWGFSGWAQHDEAIWQEVKAEAQTRARKGLAEYSSHFYGSDSDARVIQRARTNARLAGIGELITFEVKDVAQLTNPLPKGPYGTVLSNPPYGERLDSEPALIALHSLLGRIMKNQFGGWNLSLFSASPDLLSCLQLRADKQYKAKNGPLDCVQKNYHVAESTPDSKPAMVAEDYTNRLRKNLKKFEKWARQEGIECYRLYDADLPEYNVAVDRYADWVVVQEYAPPKTIDAHKARQRLFDIIAATISVLGIAPNKLVLKTRERQKGKNQYQKLGEKGEFLEVTEYNAHLWVNLTDYLDTGLFLDHRIARRMLGQMSKGKDFLNLFSYTGSATVHAGLGGARSTTTVDMSRTYLEWAERNLRLNGLTGRAHRLIQADCLAWLREANEQFDLIFIDPPTFSNSKRMEDAFDVQRDHLALMKDLKRLLRAGGTIMFSNNKRGFRMDLDGLAKLGLKAQEITQKTLSQDFARNRQIHNCWLITAAGLCGR	soluble
MVIVGGQDRSISTRQGAAMTDTPPPETDAAPEVPGAAPGKTLTPAARRALEEAAARRAAEAALSLPPEEGGRDGPEPTRFGDWEKKGVAVDFLEHHHHHH	not soluble
MGSDKIHHHHHHMGPVGYTTLDTAVVERRLGVERLGYRVVGEGYVYRHKYKAGGQRVSTLIGRPEPLDPARVLRVLSAGAYNVVLISPLHGEDDGGLASYIHNNFSAITAVDLQGYYRGYASVWTPPTARIGSLAHISSDDASDPPREPMANIIVYTRGEAGGEVLSPSGSLTIPPPPKLVEDPTGAGDIFTMVFAIMLFRGAPPGPAAEEAAAKTPEILESIRGDEGFQYSVPHSPSEAFWI	not soluble
YFEVNITMSSGLWSQEKVTSPYWEERIFYLLLQECSVTDKQTQKLLKVPKGSIGQYIQDRSVGHSRIPSAKGKKNQIGLKILEQPHAVLFVDEKDVVEINEKFTELLLAITNCEERFSLFKNRNRLSKGLQIDVGCPVKVQLRSGEEKFPGVVRFRGPLLAERTVSGIFFGVELLEEGRGQGFTDGVYQGKQLFQCDEDCGVFVALDKLELIEDDDTALESDYAGPGDTMQVELPPLEINSRVSLKVGETIESGTVIFCDVLPGKESLGYFVGVDMDNPIGNWDGRFDGVQLCSFACVESTILLHINDIIPESVTQERRPPKLAFMSRGVGDKGSSSHNKPKATGSTSDPGNRNRSELFYTLNGSSVDSQPQSKSKNTWYIDEVAEDPAKSLTEISTDFDRSSPPLQPPPVNSLTTENRFHSLPFSLTKMPNTNGSIGHSPLSLSAQSVMEELNTAPVQESPPLAMPPGNSHGLEVGSLAEVKENPPFYGVIRWIGQPPGLNEVLAGLELEDECAGCTDGTFRGTRYFTCALKKALFVKLKSCRPDSRFASLQPVSNQIERCNSLAFGGYLSEVVEENTPPKMEKEGLEIMIGKKKGIQGHYNSCYLDSTLFCLFAFSSVLDTVLLRPKEKNDVEYYSETQELLRTEIVNPLRIYGYVCATKIMKLRKILEKVEAASGFTSEEKDPEEFLNILFHHILRVEPLLKIRSAGQKVQDCYFYQIFMEKNEKVGVPTIQQLLEWSFINSNLKFAEAPSCLIIQMPRFGKDFKLFKKIFPSLELNITDLLEDTPRQCRICGGLAMYECRECYDDPDISAGKIKQFCKTCNTQVHLHPKRLNHKYNPVSLPKDLPDWDWRHGCIPCQNMELFAVLCIETSHYVAFVKYGKDDSAWLFFDSMADRDGGQNGFNIPQVTPCPEVGEYLKMSLEDLHSLDSRRIQGCARRLLCDAYMCMYQSPTMSLYK	soluble
MGHHHHHHSHMHKSNFETLQHYLESQIIGQHDLVKQLLIALLADGHILVEGPPGLAKTRAVKSLSDCVEGDFHRIQFTPDLLPADLTGTDIFRPETGEFTFQSGPIFNSLILADEINRAPAKVQAAMLEAMAEKQVTAGRHTYALPELFLVMATQNPIEQEGTYPLPEAQLDRFLLHLEVDYPDAEHELAILRINRGEAKGECSIERPSLSQQDIFTARQEVLDIHMAEAIEQYIVRLVMATRRASEYDSELDKWLAMGVSPRATIALDRCARAHAWLAGRDFVSPEDVQAMAYPVLRHRLLLSYHAQAEGVTSNQVIDKLLNLVGSA	soluble
MRKVRVGIWGFGAMGIGMANMILKKEGIEIVSVCSRSTSGKSMYDVLGIERGERPEVIINKNYEEVFREKSVDVVLLATDSFTKKAFDKIIFLLNRKINVISTAEQMAYPQADDADLAKKMDEVAKENGVSILGTGINPGFVLDLLVLALSGTCEEVTSIKAKRVNDLSPFGKSVMVEQGVGVTREEFIKGVEDKTIAGHVGFVESINMIADGLGWKLDKIEQTKEPIMTTVDRKSKYGEALAGNVAGCRQCGYGYVNGEVLIEMEHPQQIIPEAEGIKTGDYVSIKGIPNIDLQINPEIPGGVGTYAMIVNSIPLIINARPGLKTMLDIPVPRAIMGDIRNQIEVELEEESKAN	not soluble
MDTTPEPFTGKMGSYILIAPDGDAAMIDSGPKTSWERVREELQSMGVRLRYVILTHIHLDHASAAGSIVRSLDTVEAVYVHPRGARHMADPERLWQASKQFLGDYADFFGKPEPVPEGKIVVPEDGEVLELPGGVKLHVIYTPGHASHHMSFYLPQEGVMFTGDSAGVSLKDDDGTLVEFPTTPPPFKPVEYINSLDAMARFKPEKLAFAHYGMRSGGMEYLRWHREDILRWVREAVEYVSRGGGDAEELMRLLADKLENAGKAYRARNPIISEFMYRGTVLGLMDTAVRGEWKRLHL	soluble
MRLEGLTIGVGFTGSFCTYDKIFIELENLVKEGANVHTIFSDVSQNIDCRFGNSEEFMKKAYELTGNKPIVTIEEAEPFGPKGIADIIIIAPCTGNTAAKLANGITDSPVLMAAKGHLRNDKPLVISISTNDALSFNFKNIGILLNSKNIYFVPFGQDNCKAKPNSMIAHTELIIPTIELALENKQLQPVIKSPHQLEHHHHHH	soluble
